The values below come from US20260250421A1.

Assay [1] addresses human PTK7 on human cancer cell lines (human) (UniProt Q13308). Kind of assay: flow cytometry, PC-3 cells, isotype control.
Assay [2] has the same target. Kind of assay: flow cytometry, A-431 cells, isotype control. (A flow cytometer gives signals particle by particle.)
Assay [3] shares this target. Kind of assay: flow cytometry, BT-20 cells, isotype control.
Assay [4] has the same target. Kind of assay: flow cytometry, HCT116 cells, isotype control.
Assay [5] shares this target. Kind of assay: flow cytometry, HCC1954 cells, isotype control.
Assay [6] has the same target. Kind of assay: flow cytometry, NCI-N87 cells, isotype control.
Assay [7] shares this target. Kind of assay: flow cytometry, SK-OV-3 cells, isotype control.
The target of assay [8] is dog PTK7 on dog cancer cell lines (dog). Kind of assay: flow cytometry, D-17 dog cells, isotype control.
Assay [9] has as its target human PTK7 on human cancer cell lines (human) (UniProt Q13308). Kind of assay: flow cytometry, NCI-H226 cells, isotype control.
Assay [10] has the same target. Kind of assay: flow cytometry, NCI-H292 cells, isotype control.
Assay [11] shares this target. Description: flow cytometry, NCI-H358 cells, isotype control.
Assay [12] shares this target. Description: flow cytometry, NCI-H520 cells, isotype control.
The target of assay [13] is dog PTK7 on dog cancer cell lines (dog). Description: flow cytometry, CMT-U27 dog cells, isotype control.

Sequence of human PTK7 on human cancer cell lines (human) (Q13308 31-1070 limits assumed): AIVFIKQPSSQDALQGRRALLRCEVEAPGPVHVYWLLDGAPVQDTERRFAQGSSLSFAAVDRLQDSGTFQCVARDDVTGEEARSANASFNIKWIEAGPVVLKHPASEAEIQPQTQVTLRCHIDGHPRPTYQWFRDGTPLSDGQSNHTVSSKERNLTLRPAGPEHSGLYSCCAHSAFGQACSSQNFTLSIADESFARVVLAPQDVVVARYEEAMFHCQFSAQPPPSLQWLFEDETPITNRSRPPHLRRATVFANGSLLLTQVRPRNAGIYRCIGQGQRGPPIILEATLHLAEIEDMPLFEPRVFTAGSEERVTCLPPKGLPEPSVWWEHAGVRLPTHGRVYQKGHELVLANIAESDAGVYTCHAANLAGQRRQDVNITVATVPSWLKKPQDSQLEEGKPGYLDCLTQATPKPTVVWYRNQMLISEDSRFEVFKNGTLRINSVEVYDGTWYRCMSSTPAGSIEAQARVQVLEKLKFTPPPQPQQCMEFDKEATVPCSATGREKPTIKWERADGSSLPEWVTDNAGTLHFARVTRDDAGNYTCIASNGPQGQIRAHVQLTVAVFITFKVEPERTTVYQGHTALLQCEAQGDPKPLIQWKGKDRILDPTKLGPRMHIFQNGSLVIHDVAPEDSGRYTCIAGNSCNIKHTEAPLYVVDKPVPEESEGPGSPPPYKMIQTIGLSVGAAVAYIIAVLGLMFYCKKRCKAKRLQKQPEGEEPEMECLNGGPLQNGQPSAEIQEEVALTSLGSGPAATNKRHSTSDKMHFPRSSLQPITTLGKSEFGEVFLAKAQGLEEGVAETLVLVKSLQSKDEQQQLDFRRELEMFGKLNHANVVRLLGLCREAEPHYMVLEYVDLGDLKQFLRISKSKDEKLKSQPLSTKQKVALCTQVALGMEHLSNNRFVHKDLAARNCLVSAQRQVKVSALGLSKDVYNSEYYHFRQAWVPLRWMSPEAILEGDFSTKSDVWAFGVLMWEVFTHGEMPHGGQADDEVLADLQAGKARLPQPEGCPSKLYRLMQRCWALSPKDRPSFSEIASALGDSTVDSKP

Take Human IgG1 (ISO control) (antibody): the MFI is 3690 in [1]; 4630 in assay [2]; 5920 in assay [3]; 3110 in assay [4]; 6340 in assay [5]; 2850 in [6]. Further, the MFI came out at 3860 in assay [7]; 3520 in assay [8]; 9840 in [9]; 2230 in assay [10]; 3360 in assay [11]; 2420 in assay [12]. This substance displayed an MFI in [13] of 1650.
